B1: M. smegmatis ATP synthase subunit a (natural protein)
chain: MLAAEEGGAAIHVGHHTLVFELFGMTFNGDTILATAVTAVIVIALAFYLRAKVTSTGVPSGVQLFWEALTIQMRQQIEGSIGMKIAPFVLPLSVTIFVFILISNWLAVLPLQYGGADGAAAELYKAPASDINFVLALALFVFVCYHAAGIWRRGIVGHPIKVVKGHVAFLAPINIVEELAKPISLALRLFGNIFAGGILVALIAMFPWYIQWFPNAVWKTFDLFVGLIQAFIFSLLTILYFSQSMELDHEDH
B2: M. smegmatis ATP synthase subunit β with C-terminal 3×FLAG tag (natural protein)
chain: MTATAEKTAGRVVRITGPVVDVEFPRGSVPELFNALHAEITFGALAKTLTLEVAQHLGDSLVRCISMQPTDGLVRGVEVTDTGASISVPVGDGVKGHVFNALGDCLDDPGYGKDFEHWSIHRKPPAFSDLEPRTEMLETGLKVVDLLTPYVRGGKIALFGGAGVGKTVLIQEMINRIARNFGGTSVFAGVGERTREGNDLWVELADANVLKDTALVFGQMDEPPGTRMRVALSALTMAEFFRDEQGQDVLLFIDNIFRFTQAGSEVSTLLGRMPSAVGYQPTLADEMGELQERITSTRGRSITSMQAVYVPADDYTDPAPATTFAHLDATTELSRAVFSKGIFPAVDPLASSSTILDPAIVGDEHYRVAQEVIRILQRYKDLQDIIAILGIDELSEEDKQLVNRARRIERFLSQNMMAAEQFTGQPGSTVPLKETIEAFDKLTKGEFDHLPEQAFFLIGGLDDLAKKAESLGAKL
B5: M. smegmatis ATP synthase subunit b-δ (b-δ fusion protein) (natural protein)
chain: MSIFIGQLIGFAVIAFIIVKWVVPPVRTLMRNQQEAVRAALAESAEAAKKLADADAMHAKALADAKAESEKVTEEAKQDSERIAAQLSEQAGSEAERIKAQGAQQIQLMRQQLIRQLRTGLGAEAVNKAAEIVRAHVADPQAQSATVDRFLSELEQMAPSSVVIDTAATSRLRAASRQSLAALVEKFDSVAGGLDADGLTNLADELASVAKLLLSETALNKHLAEPTDDSAPKVRLLERLLSDKVSATTLDLLRTAVSNRWSTESNLIDAVEHTARLALLKRAEIAGEVDEVEEQLFRFGRVLDAEPRLSALLSDYTTPAEGRVALLDKALTGRPGVNQTAAALLSQTVGLLRGERADEAVIDLAELAVSRRGEVVAHVSAAAELSDAQRTRLTEVLSRIYGRPVSVQLHVDPELLGGLSITVGDEVIDGSIASRLAAAQTGLPD

Key:
Test in all cases: cryo-EM structure
[1] = target: B5
[2] = target: B2
[3] = target: M. smegmatis ATP synthase subunit α (M. smegmatis, UniProt A0R202 1-548)
M. smegmatis ATP synthase subunit α, sequence (A0R202 whole entry): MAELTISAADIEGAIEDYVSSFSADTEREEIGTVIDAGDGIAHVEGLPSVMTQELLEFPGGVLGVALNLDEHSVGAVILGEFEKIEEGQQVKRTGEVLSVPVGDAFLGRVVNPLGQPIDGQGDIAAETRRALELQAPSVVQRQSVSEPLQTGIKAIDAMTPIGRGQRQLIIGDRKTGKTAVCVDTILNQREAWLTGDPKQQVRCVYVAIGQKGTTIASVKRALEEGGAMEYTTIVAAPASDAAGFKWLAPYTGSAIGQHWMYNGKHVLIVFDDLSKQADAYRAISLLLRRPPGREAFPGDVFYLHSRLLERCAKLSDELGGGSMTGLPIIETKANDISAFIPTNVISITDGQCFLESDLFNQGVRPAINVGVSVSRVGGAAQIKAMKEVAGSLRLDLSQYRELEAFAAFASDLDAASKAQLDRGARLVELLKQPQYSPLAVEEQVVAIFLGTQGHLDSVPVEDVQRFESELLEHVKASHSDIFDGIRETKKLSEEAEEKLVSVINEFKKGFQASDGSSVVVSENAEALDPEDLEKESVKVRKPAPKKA

[4] = target: B1
[5] = target: the molecule itself

## B1
[1]
  binding result: binds
[2]
  binding result: binds

## B2
[3]
  binding result: binds

B3: M. smegmatis ATP synthase subunit c (natural protein)
chain: MDLDPNAIITAGALIGGGLIMGGGAIGAGIGDGIAGNALISGIARQPEAQGRLFTPFFITVGLVEAAYFINLAFMALFVFATPGLQ
[4]
  binding result: binds
[2]
  binding result: binds
[5]
  stoichiometry N: 9

B4: M. smegmatis ATP synthase subunit b′ (natural protein)
chain: MGEFSATILAASQAAEEGGGGSNFLIPNGTFFAVLIIFLIVLGVISKWVVPPISKVLAEREAMLAKTAADNRKSAEQVAAAQADYEKEMAEARAQASALRDEARAAGRSVVDEKRAQASGEVAQTLTQADQQLSAQGDQVRSGLESSVDGLSAKLASRILGVDVNSGGTQ
[4]
  binding result: binds
[2]
  binding result: binds

## B5
[2]
  binding result: binds
[3]
  binding result: binds

B6: M. smegmatis ATP synthase subunit ε (natural protein)
chain: MADLNVEIVAVERELWSGPATFVFTRTTAGEIGILPRHIPLVAQLVDDAMVRVEREGEDDLRIAVDGGFLSVTEETVRILVENAQFESEIDADAAKEDAASDDERTAAWGRARLRALGQID
[2]
  binding result: binds

B7: M. smegmatis ATP synthase subunit γ (natural protein)
chain: MAATLRELRGRIRSAGSIKKITKAQELIATSRIAKAQARVEAARPYAAEITNMLTELAGASALDHPLLVERKQPKRAGVLVVSSDRGLCGAYNANVLRRAEELFSLLRDEGKDPVLYVVGRKALGYFSFRQRTVVESWTGFSERPTYENAREIADTLVNAFMAGADDEGDDAGADGILGVDELHIVFTEFRSMLSQTAVARRAAPMEVEYVGEVETGPRTLYSFEPDPETLFDALLPRYIATRVYAALLEAAASESASRRRAMKSATDNADDLIKALTLAANRERQAQITQEISEIVGGANALAGSK
[2]
  binding result: binds
[3]
  binding result: binds
